{"source": "paper doi:10.1101/2024.04.26.591323", "key": {"[1]": {"molecular_target": "T1, TG2 (transglutaminase 2), tag-free (Homo sapiens, UniProt P21980 1-687)", "T1 sequence": "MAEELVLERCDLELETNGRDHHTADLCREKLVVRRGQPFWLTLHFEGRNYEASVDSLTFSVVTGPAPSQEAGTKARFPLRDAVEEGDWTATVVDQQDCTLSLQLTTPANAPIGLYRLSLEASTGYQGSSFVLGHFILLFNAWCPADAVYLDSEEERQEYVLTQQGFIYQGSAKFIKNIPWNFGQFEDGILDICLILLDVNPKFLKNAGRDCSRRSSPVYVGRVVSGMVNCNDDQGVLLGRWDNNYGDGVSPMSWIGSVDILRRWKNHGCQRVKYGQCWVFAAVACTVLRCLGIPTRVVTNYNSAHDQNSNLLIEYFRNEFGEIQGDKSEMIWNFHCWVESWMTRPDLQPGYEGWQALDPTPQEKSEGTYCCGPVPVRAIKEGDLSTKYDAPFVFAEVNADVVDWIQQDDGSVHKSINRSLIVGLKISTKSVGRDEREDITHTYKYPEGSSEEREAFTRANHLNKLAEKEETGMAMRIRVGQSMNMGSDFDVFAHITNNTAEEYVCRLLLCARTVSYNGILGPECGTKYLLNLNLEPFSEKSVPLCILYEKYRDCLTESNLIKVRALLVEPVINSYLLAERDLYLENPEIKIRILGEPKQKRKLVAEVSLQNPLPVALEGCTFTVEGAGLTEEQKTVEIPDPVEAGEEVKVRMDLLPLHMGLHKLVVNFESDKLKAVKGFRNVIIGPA", "test": "BLI"}, "[2]": {"molecular_target": "T2, TG2 (transglutaminase 2), His6-tagged (Homo sapiens, UniProt P21980 1-687)", "T2 sequence": "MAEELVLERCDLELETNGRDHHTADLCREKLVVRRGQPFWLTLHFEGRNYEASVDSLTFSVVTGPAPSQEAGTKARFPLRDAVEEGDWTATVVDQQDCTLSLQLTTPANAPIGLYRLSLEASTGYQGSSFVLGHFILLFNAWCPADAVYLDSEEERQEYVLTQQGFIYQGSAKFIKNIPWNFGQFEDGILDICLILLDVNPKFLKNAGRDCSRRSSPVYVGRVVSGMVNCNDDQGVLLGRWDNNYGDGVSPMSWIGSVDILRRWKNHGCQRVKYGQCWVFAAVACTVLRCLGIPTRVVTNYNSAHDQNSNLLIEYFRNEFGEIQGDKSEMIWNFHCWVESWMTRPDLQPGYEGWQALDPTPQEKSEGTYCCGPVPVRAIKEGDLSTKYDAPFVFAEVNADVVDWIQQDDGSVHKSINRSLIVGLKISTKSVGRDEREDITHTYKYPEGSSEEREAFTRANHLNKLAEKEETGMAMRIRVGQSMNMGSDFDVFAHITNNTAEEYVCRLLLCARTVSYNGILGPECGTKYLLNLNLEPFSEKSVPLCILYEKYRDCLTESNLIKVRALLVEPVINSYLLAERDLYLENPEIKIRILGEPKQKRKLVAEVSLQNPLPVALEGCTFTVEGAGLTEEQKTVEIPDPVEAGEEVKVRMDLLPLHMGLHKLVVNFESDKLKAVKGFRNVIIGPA", "test": "pull-down"}}, "data": [{"binder": "CCUGGUUUUUAAGGAGUGUCGCCAGAGUGCCGCGAAUGAAAAAC (structured_RNA)", "note": "[43-mer RNA 3' End Biotin]", "values": [{"measurement": "Kd", "setting": "[1]", "result": 88, "unit": "nM"}]}, {"binder": "AAAAAAAAAAAAAAAAAAAAAAAAAAAAAAAAAAAAAAAAAAAAAAAAA (ssDNA)", "note": "[poly(dA) 3' End Biotin]", "values": [{"measurement": "binding result", "setting": "[2]", "result": "no binding"}]}, {"binder": "GGGGGGAGGGGGGAGGGGGGAGGGGGGAGGGGGGAGGGGGGAGGGGGGA (ssDNA)", "note": "[poly(dG) 3' End Biotin]", "values": [{"measurement": "binding result", "setting": "[2]", "result": "binds"}]}]}
